Reference: publication PMC4121272, “Two β-Galactosidases from the Human Isolate Bifidobacterium breve DSM 20213: Molecular Cloning and Expression, Biochemical Characterization and Synthesis of Galacto-Oligosaccharides” (PLoS ONE, 2014)

Substrate: O=[N+]([O-])c1ccccc1O[C@@H]1O[C@H](CO)[C@H](O)[C@H](O)[C@H]1O
Assay: purified protein
Assay type: biochemical, Bifidobacterium breve
Details: 50 mM sodium phosphate pH 6.5, 30°C

Protein | Km | Vmax | kcat | kcat/Km
β-gal II (Bifidobacterium breve DSM 20213 = JCM 1192) (protein, full length, C-terminal His6 tag kept (pET-21a), E. coli T7 Express with GroEL/GroES, IMAC; calculated 116,594 Da; homodimer 211 kDa; GH2; N-terminus from primer MNTTDDQ, C-terminus before tag DVNLELI) MNTTDDQLKNGDPIVSPSMPTTAWLTDPRVYAVHRLDAHSDHACWSHAPVNGEGSDLGQSLDGEWRVRVETAPTGRFPDGTSDVSPLFAASDFDDSSFSRVQVPSHLETAGLLAPQYVNVQYPWDGHEDPEAPAIPEHGHVAVYRREFDADGEVAQAVREGHPVTLTFQGAATAIYVWLNGSFVGYAEDSFTPSEFDVTDAIKMEGNVLAVACYEYSSASWLEDQDFWRLHGLFRSVELNARPSAHVADIHADTDWDPATSRGSLSLDILVDGTPNAATADLVLRDKNGTTVWHTSTEATGTLHAEAEIDGASPWSAERPDLYTLSIALLDADGRILEIARTRIGFRRVSIEDGILKLNGKRLVFRGVNRHEFDCRRGRAITEEDMLWDIRFMKRHNINAVRTSHYPNQSRWYELCDEYGIYLIDETNLETHGSWNSPGDIPVGTSVPGDDEAWLGACIDRLDSMIMRDRNHPSVLIWSLGNESYAGEVLKAMSAHAHRLDPGRPVHYEGVNWNHAYDEISDFESRMYAKPAEIRDWLEHGDERGEASKPFVSCEYMHAMGNSCGGLSEFIDLERYERYSGGFIWDYIDQGLVQRLPDGCERLSVGGDWGDRPTDYEFVGNGIVFADRTPSPKAQEVKQLYSPVKLTPDGHGVTIENRNLFASTDGYVFAARLLEDGREIWHADYRFDVAAGDTQHHDIAFPDIDSDEGTREVTYEVDLLLAEATAWAPAGYELAFGQLTDTLNPEGDITGNNQDDGRATVTLSRWNAGIRRDDEEILMSRTQGGIVSWKRNGREMVIRRPEIVTFRPLTDNDRGNRSGYDRAAWFAAGRYAVVTDTSITQSDDGGLTAAYRYELADPDHTPVSVTYRVTPGMRMQLTVEYPGNAAGAASLPAFGIEWELPGEYQHLRYYGTGPEETYRDRKQGGKLGIWDTTSEASTAPYLMVQETGSHEDVRWLEATDIQGHGLRVTQRGDRHFTASLLPWNTYTIEAARRHEDLPAPRHNYLRLLAAQMGVGGDDSWGAPVHTAYQLPADRPLTLDVNLELI | 670 ± 70 µM | 188 µmol/min/mg | 364 ± 6 s⁻¹ | 543000 ± 65000 M⁻¹ s⁻¹
β-gal I (Bifidobacterium breve DSM 20213 = JCM 1192) (protein, full length, C-terminal His6 tag kept (pET-21a), E. coli T7 Express with GroEL/GroES, IMAC; calculated 116,127 Da; homodimer 220 kDa; GH2; N-terminus from primer MQGKAKT, C-terminus before tag DVTLELI) MQGKAKTIMTNLQSAQQFSQAWLTDPRVFAVNRLAAHSSHKFYDHAPQCGEAMDLKQSLDGQWRVQMVDLADLADNELAEAAFAQPGYDAAGFSPIEVPSALETKGFLNHQYVNQQYPWSGHESPVAPDVPKHNHVALYRHEFSLEPKAAAVLEANKTAADDTAKRRVTLTFQGAATAIAVWLNGAFIGYAEDSFTPSEFDVTDVLRDGVNTLAVACFEFSSASWLEDQDFWRLHGIFRSVELEAQPLVHVNDLRVLADYDHTTGEGSLDVVALVRNAGTAAAVAATVLDAAGNTVWHSKLTAGADAETLTVKANVGKVNPWSAEEPTLYTLQVVATDAAGQVIEAALQRIGFRHFAIEDGLMKLNGKRIVFKGVDRHEFDARTGRTIAEADMIEDIHSFKRLNINAVRTSHYPNETRWYELCDEYGIYVLDETNLETHGSWTDPGDVFQPARAIPGSKDEWRAACVDRTASMVRRDYNHPSVVIWSLGNEAFGGDVFYSMRDFVHENDPFRPVHYEGTFNDPEFSAATDIMSRMYAKPDEIVKLYLGEDGKKPYISCEYSHSMGNSTGGLHLYTELERYPLYQGGFIWDYVDQALWQDCGDGTERLAYGGDFEDRPNDYEFSGDGVMFADRTPSPKAQEVKQLYANVKLVPDESGVTITNDNLFVSTASSLFTARVLVDGVERWHANYRFDVPAGETVREPIAFPKVTDLVALSGSAEVTYEVDQRLAEATDWAPAGYELTFGQYVAAVSFDDGAADAVVAGDAEVAADGFNAGIHTDFGEVLLSKTQGGMVSFKRDGREMVIRRPNLTTFRALTDNDRGNGSGFERAQWMAAGRYARVTDTSVEETADGKGLKATYSYELADAKHTPVTVHYEVDAALRVHLTVEYPGEADAATLPAFGLEWILPKQYDRLRFYGLGPEETYADRLHGAKLGVFSRTAAEDCAPYLLPQETGNHEQVRWAEITDEYGHGMRVTAAGGTRFATSLLPYSSLMLEDALHQNELPKPRHTFLRLLAAQMGVGGDDTWGAPVHDEFQVPADQPLKLDVTLELI | 1300 ± 100 µM | 486 µmol/min/mg | 939 ± 7 s⁻¹ | 722000 ± 66000 M⁻¹ s⁻¹
